According to article PMC9298051, “A phytobacterial TIR domain effector manipulates NAD^+ to promote virulence” (The New Phytologist, 2021):

Key:
[1] = biological target: T1, AbTIR (Acinetobacter baumannii, UniProt A0A009IHW8); test: HPLC of reaction products; assay type: biochemical; conditions: product v-cADPR
T1 construct: gene J512_3302; His-tagged recombinant AbTIR-His

[2] = system: NC(=O)c1ccc[n+]([C@@H]2O[C@H](COP(=O)(O)OP(=O)(O)OC[C@H]3O[C@@H](n4cnc5c(N)ncnc54)[C@H](O)[C@@H]3O)[C@@H](O)[C@H]2O)c1; test: purified protein; conditions: room temperature, 60 min, 1–600 μM NAD+

T1 sequence (A0A009IHW8 whole entry): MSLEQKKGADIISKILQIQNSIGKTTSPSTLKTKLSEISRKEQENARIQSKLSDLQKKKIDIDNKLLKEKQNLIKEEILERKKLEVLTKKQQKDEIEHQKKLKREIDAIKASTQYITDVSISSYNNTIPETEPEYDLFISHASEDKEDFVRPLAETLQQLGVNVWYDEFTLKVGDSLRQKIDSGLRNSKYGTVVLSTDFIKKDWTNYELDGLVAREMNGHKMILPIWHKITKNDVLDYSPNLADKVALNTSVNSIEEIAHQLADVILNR

Compound | HPLC of reaction products [1] | Km [2] | kcat [2]
NC(=O)c1ccc[n+]([C@@H]2O[C@H](COP(=O)(O)OP(=O)(O)OC[C@H]3O[C@@H](n4cnc5c(N)ncnc54)[C@H](O)[C@@H]3O)[C@@H](O)[C@H]2O)c1 [NAD^+] | NAD^+ hydrolase reactions were conducted with purified HopAM1 and AbTIR |  | 
HopAM1 (Pseudomonas syringae pv. tomato str. DC3000) |  | 174.8 µM | 0.00933 s⁻¹
